These results are taken from patent publication US20260217860A1.

The target of experiment [1] is monkey EGFR on CHO-S-fasEGFR cells (monkey) (UniProt P55245). Briefly: flow cytometry, transfected CHO-S cells.
Experiment [2] addresses human EGFR on CHO-S-hEGFR cells (human) (UniProt P00533). Briefly: flow cytometry, transfected CHO-S cells.
The target in experiment [3] is monkey (Macaca fascicularis) MUC1 on CHO-S-fasMUC1 cells (monkey (Macaca fascicularis)). Briefly: flow cytometry, transfected CHO-S cells. For orientation: Flow cytometry measures light scatter and fluorescence of single cells or particles in a stream.
The target of experiment [4] is human MUC1 (484 amino acids) on CHO-S-hMUC1 (484AA) cells (human) (UniProt P15941). Briefly: flow cytometry, transfected CHO-S cells.
The target of experiment [5] is monkey EGFR on CHO-S-fasEGFR cells (monkey) (UniProt P55245). Briefly: flow cytometry, transfected CHO-S cells, secondary antibody only.
For experiment [6], the target named is human EGFR on CHO-S-hEGFR cells (human) (UniProt P00533). Described as above.
Experiment [7] addresses monkey (Macaca fascicularis) MUC1 on CHO-S-fasMUC1 cells (monkey (Macaca fascicularis)). Described as above.
Experiment [8] has as its target human MUC1 (484 amino acids) on CHO-S-hMUC1 (484AA) cells (human) (UniProt P15941). The description is as above.

Sequence of monkey (Macaca fascicularis) MUC1 on CHO-S-fasMUC1 cells (monkey (Macaca fascicularis)) (chain, as listed by the source): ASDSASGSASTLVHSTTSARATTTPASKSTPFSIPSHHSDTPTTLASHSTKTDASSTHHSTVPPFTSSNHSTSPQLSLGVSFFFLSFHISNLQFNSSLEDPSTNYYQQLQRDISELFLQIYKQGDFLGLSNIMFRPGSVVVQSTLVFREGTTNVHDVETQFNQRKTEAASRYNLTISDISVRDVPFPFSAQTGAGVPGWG

In the case of “isotype control (ISO), an antibody targeting an irrelevant target protein”, the Percentage of Positive Cells (%) in experiment [1] amounted to 0.58%; in experiment [2], 0.7%; in experiment [3], 1.15%; in experiment [4], 4.05%.

Take “secondary antibody anti-hIgG-Fc-Alex Flour 647 (RLI-H) (Jackson ImmunoResearch Laboratories, Inc., Cat #: 109-606-170)”: the Percentage of Positive Cells (%) in experiment [5] was determined as 0.19%; in experiment [6] it was 0.66%; in experiment [7] it was 0.91%; in experiment [8] it was 2%.
